The record followed here is article doi:10.1101/420174.

The assay deals with afTMEM16 scramblase from Aspergillus fumigatus (Aspergillus fumigatus). Kind of assay: cryo-EM structure.

“afTMEM16 scramblase from Aspergillus fumigatus (natural protein)” registered a stoichiometry N of 2.
